According to patent publication US20080199496A1:

B1: recombinant protein LmPDI-(His)6 produced in E. coli (protein)
chain: RESTAESLKLTKENFNETIAKSEIFLVKFYVDTCGYCQMLAPEWEKAANETIDNALMGEVDCHSQPELAANFSIRGYPTIILFRNGKEAEHYGGARTKDDIIKYIKANVGPAVTPASNAEEVTRAKEEHDVVCVGLTANNSTSLSTTLAEAAQSFRVSLKFFEAEPKLFPDEKPETIVVYRKGGEKEVYDGPMEVEKLTEFLQISRVAFGGEITPENYQYYSVIKRPVGWAMVKPNETASIELKESLTEVGKKMRSHMVVLWVNISKHPVWRDFGVPEDAKYPAFLAIHWGANYLHSTAEVVTRESLEKFILEFAAGRVEPTIKSLPVPEVETVDGKTTIVAKTMQKHLTSGKDMLILFFAPWCGHCKNFAPTFDKIAKEFDATDLIVAELDATANYVNSSTFTVTAFPTVFFVPNGGKPVVFEGERSFENVYEFVRKHVTTFKVSEKPANVTEEKKSEEENKSSKSNESNDSNESNVDKQDL
B2: bovine protein disulfide-isomerase (protein)
chain: APDEEDHVLVLHKGNFDEALAAHKYLLVEFYAPWCGHCKALAPEYAKAAGKLKAEGSEIRLAKVDATEESDLAQQYGVRGYPTIKFFKNGDTASPKEYTAGREADDIVNWLKKRTGPAASTLSDGAAAEALVESSEVAVIGFFKDMESDSAKQFFLAAEVIDDIPFGITSNSDVFSKYQLDKDGVVLFKKFDEGRNNFEGEVTKEKLLDFIKHNQLPLVIEFTEQTAPKIFGGEIKTHILLFLPKSVSDYEGKLSNFKKAAESFKGKILFIFIDSDHTDNQRILEFFGLKKEECPAVRLITLEEEMTKYKPESDELTAEKITEFCHRFLEGKIKPHLMSQELPDDWDKQPVKVLVGKNFEEVAFDEKKNVFVEFYAPWCGHCKQLAPIWDKLGETYKDHENIVIAKMDSTANEVEAVKVHSFPTLKFFPASADRTVIDYNGERTLDGFKKFLESGGQDGAGDDDDLEDLEEAEEPDLEEDDDQKAVKDEL

Columns and labels:
[1] = biological target: recombinant protein LmPDI-(His)6 produced in E. coli (Leishmania major); experiment: cell-based or functional assay
[2] = biological target: T1, scrambled RNase A (reduced and denatured ribonuclease A), P61823
T1 chain: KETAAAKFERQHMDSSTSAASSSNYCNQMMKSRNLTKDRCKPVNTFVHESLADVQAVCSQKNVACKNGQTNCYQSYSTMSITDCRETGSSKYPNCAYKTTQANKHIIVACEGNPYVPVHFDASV

Molecule	inhibition of LmPDI activity (scrambled RNase A reactivation test) [1]	inhibition of rLmPDI activity (scrambled RNase reactivation) (% inhibition at 0.1 mM) [1]	inhibition of rLmPDI activity (scrambled RNase reactivation) (% inhibition at 0.5 mM) [1]	inhibition of rLmPDI activity (scrambled RNase reactivation) (% inhibition at 2 mM) [1]	reactivation of scrambled RNase A (RNase A activity at 296 nm) [2]
bacitracin (peptide)	2 mM	50	70	100	
zinc bacitracin (peptide)	2 mM	50	70	100	
B1					LmPDI is capable of restoring RNase A activity in a similar manner to that of bovine PDI
B2					LmPDI is capable of restoring RNase A activity in a similar manner to that of bovine PDI, used as a control
